In general, stoichiometry N refers to a count of units in the complex or per binding partner.

Assay [1] has as its target HIV-1 matrix protein (MA), cleaved, in mature cHIV particles (HIV-1). The assay can be described thus: cryo-EM structure.
Assay [2] addresses HIV-1 Gag polyprotein, uncleaved, in immature virus particles (MA domain of Gag) (HIV-1). The assay can be described thus: cryo-EM structure.

For “HIV-1 matrix protein (MA), cleaved, in mature cHIV particles (natural protein)”, the stoichiometry N in assay [1] is 3.
“HIV-1 Gag polyprotein, uncleaved, in immature virus particles (MA domain of Gag) (natural protein)” yielded a stoichiometry N in assay [2] of 3.

These data come from paper PMC7611776.
